Where a chain is given by its changes, count along the chain named.

Experiment [1] has as its target T1, biotinylated human H202D GDF-15 variant (human, UniProt Q99988 197-308, biotinylated, sites not stated).
T1 construct: also called Human GDF-15 H202D
T1 chain: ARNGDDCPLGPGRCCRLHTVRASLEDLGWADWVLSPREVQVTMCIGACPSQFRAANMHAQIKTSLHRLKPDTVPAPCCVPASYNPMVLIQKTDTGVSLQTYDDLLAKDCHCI
In words: HTRF binding assay, biotinylated antigen, titration of antibody. The text has this: (§1) Supernatants generated from the immunizations with human GDF-15 and purified IgGs were screened to identify IgGs with specific binding to human, cynomolgus, or mouse GDF-15. The HTRF (Homogeneous Time Resolved Fluorescence) assay is based on detection of a measurable FRET signal upon binding of a titration of test antibody to biotinylated human H202D GDF-15 variant, cynomolgus GDF-15 and mouse GDF-15. Europium cryptate (EuK) labelled Streptavidin and anti-human IgG XL665 (Cis Bio) were used as secondary detection reagents serving as energy donor and acceptor respectively. In the absence of test antibody binding, there is no detectable FRET fluorescence. When test antibody binds to GDF-15, the resulting physical proximity between the secondary reagent donor/acceptor pair results in FRET. FRET was measured ratiometrically [665 nm (acceptor)/620 nm (donor)] on an Envision plate reader, and data plotted using PRISM 6® software (Graphpad).

Experiment [2] deals with T2, biotinylated cynomolgus GDF-15 (cynomolgus, UniProt G7PWZ3 197-308, biotinylated, sites not stated).
T2 construct: also called Cyno GDF-15
T2 sequence: T1 chain with D6R, R21H, A54E, T63M, S64N, I112V
Described as above.
Source text: as §1

In another experiment the target is T3, mouse GDF-15 (mouse, UniProt Q9Z0J7 189-303).
T3 construct: also called mGDF-15
T3 sequence: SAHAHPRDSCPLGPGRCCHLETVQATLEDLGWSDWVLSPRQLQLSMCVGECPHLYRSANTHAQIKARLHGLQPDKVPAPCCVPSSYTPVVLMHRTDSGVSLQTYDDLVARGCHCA
The description is as above.
Source text: as §1

For a further experiment, the target named is T4, mature human GDF-15 (human, UniProt Q99988 197-308).
T4 construct: Homodimer; also called hGDF-15; recombinant hu-GDF15
T4 sequence: T1 chain with D6H
The experiment in a line: HTRF epitope competition; competitor DyLight 650 labelled Antibody A; Europium labelled human GDF-15. The text has this:
Antibodies from the immunizations with human GDF-15, in the form of crude supernatants from the immunization or in the form of purified IgGs, were chosen on the basis that they bind and compete with an epitope recognized by a control anti-GDF-15 antibody “Antibody A”. A biochemical epitope competition format was applied using an HTRF epitope competition assay that measured the binding of DyLight 650 labelled Antibody A to Europium labelled human GDF-15 (Prospec). In the absence of Antibody A binding, there is no detectable FRET fluorescence. When Antibody A binds to GDF-15, the resulting physical proximity between the secondary reagent donor/acceptor pair results in FRET. Competition with an antibody that recognizes the same or similar epitope will result in a dose dependent reduction of the FRET signal. FRET was measured ratiometrically [665 nm (acceptor)/620 nm (donor)] on an Envision plate reader, and IC₅₀ values were determined by curve fitting the data to a four parameter logistic equation using PRISM 6® software (Graphpad).
Background: Time-resolved FRET reads energy transfer from a long-lived donor to a nearby acceptor.

For experiment [3], the target named is T5, human BMP7 (R&D Systems 354-BP/CF) (human, UniProt P18075 293-431).
T5 construct: Bought protein, adsorbed on the ELISA plate
T5 sequence (looked up): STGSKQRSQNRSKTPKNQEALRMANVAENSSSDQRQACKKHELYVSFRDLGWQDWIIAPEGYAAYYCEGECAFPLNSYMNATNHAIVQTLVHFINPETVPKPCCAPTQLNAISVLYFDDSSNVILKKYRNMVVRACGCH
In words: antigen presentation ELISA: human BMP7 adsorbed on a Nunc Maxisorp plate, titration of IgG, anti-human IgG-HRP, TMB, absorbance at 450 nm. The protocol: (§2) Purified humanized IgGs were screened for binding to human GDF-15 over two further members of the same family, TGFβ1 (R&D Systems 240-B) and BMP7 (R&D Systems 354-BP/CF), using a standard antigen presentation ELISA. Human GDF-15, human TGFβ1 or human BMP7 were adsorbed onto a Nunc Maxisorp™ plate. After removal of excess unbound antigen, a titration of test IgG was added to the plate. After a 1-hour incubation, the unbound IgG was removed. The extent of IgG binding was determined by addition of an anti-human IgG antibody conjugated to the horseradish peroxidase (HRP) enzyme and measuring the optical absorbance at 450 nm of the product of its reaction with the substrate TMB.
(In an ELISA, binding on a coated surface is turned into a signal by an enzyme label.)

Experiment [4] deals with T6, human TGFβ1 (R&D Systems 240-B) (human, UniProt P01137 279-390).
T6 construct: Bought protein, adsorbed on the ELISA plate
In words: antigen presentation ELISA: human TGFβ1 adsorbed on a Nunc Maxisorp plate, titration of IgG, anti-human IgG-HRP, TMB, absorbance at 450 nm. The protocol:
as §2

T6 sequence (P01137 279-390 limits assumed): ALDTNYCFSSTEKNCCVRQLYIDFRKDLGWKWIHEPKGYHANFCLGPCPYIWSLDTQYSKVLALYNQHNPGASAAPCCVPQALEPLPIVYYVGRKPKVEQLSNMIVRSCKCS

B1: AB1170148 (antibody, V domains shown)
VH: QVQLQQPGAELVRPGTSVKLSCKASGYTFTSYWMHWVKQRPRQGLEWIGLIDPSDNYTNYNQNFKGKATLTVDTSSSTAYMQLGSLTSEDSAVYYCASYDGYSTPSAMDYWGQGTSVTVSS
VL: QIVLSQSPAILSASPGEKVTMTCRASSSVNYMHWYQQKPGSSPKPWIYATSNLASGVPARFSGSGSGTSYSLIISRVEAEDAAAYYCQQWSSYPPTFGGGTKLEIK
Take B1: the binding result (in experiment [1]; in experiment [2]; with mouse GDF-15) was “binds” in each case. Moreover, the IC50 (as a rule, the point on the concentration scale where inhibition reaches its midpoint) with mature human GDF-15 turned out to be 68.3 nM.

B2: AB1170246 (antibody, IgG1, V domains shown)
VH: QVQLQESGPGLLKPSQTLSLTCTVSGFSLITSGLGVSWIRQPAGKGLEWLAHIYWDDDKRYNPSLKSRLTISKDTSKNQVSLKLSSVTAADTAVYYCARGGYDGYYDYWGQGTTVTVSS
VL: DVVMTQSPLSLPVTLGQPASISCRSSQSIVHSNGNTNLEWYLQKPGQSPQLLIYKVSNRLSGVPDRFSGSGSGTDFTLKISRVEAEDVGVYYCFQGSHVRTFGQGTKLEIK
notes: Humanized IgG1 TM; not shown: human immunoglobulin kappa light chain constant domain
Molecule B2 came in with an IC50 in the experiment with mature human GDF-15 of 4.99 nM. Moreover, the binding result in experiment [3] and in experiment [4] was “no binding (tested: 5 µg/mL)” each time.

B3: AB1170006 (antibody, V domains shown)
VH: EVQLQQSGPELVKPGASVKIPCKASGYTFTDYNMDWVKQSHGKSLEWIGDINPNNGVTIYNQKFKGKATLTVDKSSSTAYMELRSLTSEDTAVFYCAREELTGNAMDYWGQGTSVTVSS
VL: DIQMTQSPASLSVSVGETVTITCRASENIYSHLAWYQQKQGKSPQLLVYAATNLADGVPSRFSGSGSGTQYSLKINSLQSEDFGSYYCQHFWGTPWTFGGGTKLEIK
With B3, the binding result (in experiment [1]; in experiment [2]; with mouse GDF-15) was “binds” throughout. The molecule further registered an IC50 in the experiment with mature human GDF-15 of 97.1 nM.

B4: AB1170242 (antibody, IgG1, V domains shown)
VH: QVQLQESGPGLLKPSQTLSLTCTVSGFSLSTYGMGVGWIRQPAGKGLEWLANIWWNDDKYYNSALKSRLTISKDTSKNQVSLKLSSVTAADTAVYYCAQEVYGWFAYWGQGTLVTVSS
VL: DIQMTQSPSTLSASVGDRVTITCKASQNVGTNVAWYQQKPGQPPKALIYSASYRYSGVPDRFSGSGSGTDFTLTISSLQAEDVAVYYCQQYNSYPLTFGQGTKLEIK
notes: as for B2
In the experiment with mature human GDF-15, B4 gave an IC50 of 0.288 nM. Further, the binding result in experiment [3] and in experiment [4] was “no binding (tested: 5 µg/mL)” each time.

B5: AB1170249 (antibody, IgG1, V domains shown)
VH: B4 VH with A43L, E100M, V101A, G103S
VL: B4 VL with T10F, V29M, G30D, L96F
notes: as for B2
As to B5, the IC50 with mature human GDF-15 came out at 0.406 nM. The binding result in experiment [3] and in experiment [4] was “no binding (tested: 5 µg/mL)” in each case.

B6: AB1170241 (antibody, IgG1, V domains shown)
VH: QVQLVQSGSELKKPGASVKVSCKASGYTFTDYNMDWIRQSPGKGLEWIGDINPNQGGTFYNQKFKDRATLTVDKSTSTAYMELRSLRSDDTAVYYCAREEKLYFGLMDYWGQGTTVTVSS
VL: DIQMTQSPSSLSASVGDRVTITCRASENIYSYLAWYQQKPGKAPKLLVYNAKTLAEGVPSRFSGSGSGIDFTLTISSLQPEDFATYYCQHQYGSPPTFGQGTKLEIK
notes: Humanized IgG1 TM; Made from AB1170243 by changing NNG to NQG in heavy chain CDR2; not shown: human immunoglobulin kappa light chain constant domain
On to B6, for which, in the experiment with mature human GDF-15, the IC50 came out at 0.212 nM. For the same molecule, the binding result in experiment [3] and in experiment [4] was “no binding (tested: 5 µg/mL)” each time.

B7: AB1170248 (antibody, IgG1, V domains shown)
VH: QVQLVQSGSELKKPGASVKVSCKASGYTFTDYNMDWVRQAPGKGLEWIGDINPYNGITIYNQKFKGRATLTVDKSTSTAYMELRSLRSDDTAVYYCAREEKLGTSFDYWGQGTTVTVSS
VL: B6 VL with Y32N, N50A, K52T, T53N, E56D, I69T, Q91F, S94T, P96W
notes: as for B2
For the molecule B7, in the experiment with mature human GDF-15, the IC50 was determined as 1.58 nM. Moreover, the binding result in experiment [3] and in experiment [4] was “no binding (tested: 5 µg/mL)” each time.

B8: AB1170243 (antibody, IgG1, V domains shown)
VH: B6 VH with Q55N
VL: B6 VL
notes: Humanized IgG1 TM; also called human anti-human GDF-15 IgG; not shown: human immunoglobulin kappa light chain constant domain
B8: in the experiment with mature human GDF-15, the IC50 was 0.155 nM. Moreover, the binding result in experiment [3] and in experiment [4] was “no binding (tested: 5 µg/mL)” in each case.

B9: AB1170244 (antibody, IgG1, V domains shown)
VH: EVQLVESGGGLVKPGGSLRLSCAASGFTFSSYAMSWVRQAPGKGLEWVAYISSGGDNIYYADTVKGRFTISRDNSKNTLYLQMNSLKTEDTAVYYCTRALVENAYFDYWGQGTTVTVSS
VL: DSVLTQSPDSLAVSLGERATINCRASKSVSTSTYSYMHWYQQKPGQPPKLLIKYASYLESGVPDRFSGSGSGTDFTLKISRVEAEDVGVYYCQHSREFPWTFGGGTKVEIK
notes: as for B2
B9 returned an IC50 with mature human GDF-15 of 1.17 nM. Moreover, the binding result in experiment [3] and in experiment [4] was “no binding (tested: 5 µg/mL)” throughout.

B10: AB1170245 (antibody, IgG1, V domains shown)
VH: B9 VH with N57Y, E102D
VL: DIVLTQSPDSLAVSLGERATINCRASKSVSTSSYSYMHWYQQKPGQPPKLLIKYASYLEFGVPSRFSGSGSGTDFTLTISSLQPEDVATYYCQHSREFPWTFGGGTKVEIK
notes: as for B2
B10: the IC50 with mature human GDF-15 was 2.23 nM. Besides, the binding result in experiment [3] and in experiment [4] was “no binding (tested: 5 µg/mL)” in each case.

B11: AB1170247 (antibody, IgG1, V domains shown)
VH: QVQLVQSGSELKKPGASVKVSCKASGYTFTSYDINWVRQAPGQGLEWIGWIYPRDGISKYNEKFKGRATLTVDTSASTAYMELSSLRSEDTAVYYCAGTYDPAYFDYWGQGTTVTVSS
VL: EIVLTQSPATLSVSPGERATLSCRASQSISYYLHWYQQKPGQAPRLLIKYASQSISGVPDRFSGSGSGTDFTLKISRVEAEDFGVYYCQQSNSWPYTFGGGTKVEIK
notes: as for B2
As for B11, the IC50 in the experiment with mature human GDF-15 was 11.3 nM. The binding result in experiment [3] and in experiment [4] was “no binding (tested: 5 µg/mL)” each time.

For the origin of these results see patent US20220281965A1 (AstraZeneca / MedImmune, published 2022).
